According to PMC12714728 (2025):
Positions of bridges follow the written chain, without caps; N, C: chain ends. Non-standard residues stand in square brackets, D forms with d. No end group written: not given here.

Legend:
Test in all cases: SPR
[1] = target: T1, H1N1 A/New Caledonia/20/1999 hemagglutinin ectodomain, biotinylated HA0 (influenza A virus A/New …, biotin on the BirA site)
[2] = target: T2, H1N1 A/California/07/2009 hemagglutinin ectodomain, biotinylated HA0 (influenza A virus A/California/07/2009 …, biotin on the BirA site)
[3] = target: T3, H5N1 A/Vietnam/1203/2004 hemagglutinin ectodomain, biotinylated HA0 (influenza A virus A/Vietnam/1203/2004 …)
[4] = target: T1, H1N1 A/New Caledonia/20/1999 …; remark: listed apart in the source
[5] = target: T2, H1N1 A/California/07/2009 hemagglutinin …; remark: listed apart in the source
[6] = target: T3, H5N1 A/Vietnam/1203/2004 hemagglutinin …; remark: listed apart in the source

Row | Binder | Kd [1] [nM] | Kd [2] [nM] | Kd [3] [nM] | koff [4] [s⁻¹] | koff [5] [s⁻¹] | koff [6] [s⁻¹]
1 | LYEDPLGVAGGMG (non-template-based cyclic peptide (direct head-to-tail cyclization)) [cyclic peptide CP14] | 640 | 1070 | 2740 | – | – | –
2 | [dP]PVSLYEDPLGVAGGMGVY (also: cyclic peptide, ring closure not given here) [cyclic peptide CP1] | 20 | – | 1800 | 0.02 | 0.01 | 0.14
3 | P[dP]SLYEDPLGVAGGMGV (also: cyclic peptide, ring closure not given here) [cyclic peptide CP2] | 3080 | 7280 | – | 1.08 | 3.48 | –
4 | PGVSLYEDPLGVAGGMGVY (also: cyclic peptide, ring closure not given here) [cyclic peptide CP4] | 360 | 120 | 290 | 0.06 | 0.04 | 0.32
5 | PGLYEDPLGVAGGMG (also: cyclic peptide, ring closure not given here) [cyclic peptide CP6] | 800 | 1910 | 3020 | 0.42 | 0.83 | 0.95
6 | CYRDPLGVAGEMC (also: cyclic peptide, ring closure not given here) [cyclic peptide CP13] | 32000 | 12000 | 8910 | – | – | –
7 | CLYRDPLGVAGGMGC (disulfide 1-15) [cyclic peptide CP8] | 850 | 330 | 320 | 0.23 | 0.1 | 0.98
8 | PPLYEDPLGVAGGMG (also: one Pro of the Pro-Pro template is D, which not given here, cyclic peptide, ring closure not given here) [cyclic peptide CP3] | 1180 | 2390 | 2040 | 0.45 | 1.07 | 0.76
